In US20080038777A1:

Legend:
[1] = biological target: human C-C chemokine receptor 2B (human) (UniProt P41597); experiment: cell-based or functional assay
[2] = biological target: dog-human chimeric C-C chemokine receptor 2B (dog-human chimera (synthetic)); experiment: cell-based or functional assay
Chain of dog-human chimeric C-C chemokine receptor 2B (dog-human chimera (synthetic)) (chain, as listed by the source mutant limits assumed): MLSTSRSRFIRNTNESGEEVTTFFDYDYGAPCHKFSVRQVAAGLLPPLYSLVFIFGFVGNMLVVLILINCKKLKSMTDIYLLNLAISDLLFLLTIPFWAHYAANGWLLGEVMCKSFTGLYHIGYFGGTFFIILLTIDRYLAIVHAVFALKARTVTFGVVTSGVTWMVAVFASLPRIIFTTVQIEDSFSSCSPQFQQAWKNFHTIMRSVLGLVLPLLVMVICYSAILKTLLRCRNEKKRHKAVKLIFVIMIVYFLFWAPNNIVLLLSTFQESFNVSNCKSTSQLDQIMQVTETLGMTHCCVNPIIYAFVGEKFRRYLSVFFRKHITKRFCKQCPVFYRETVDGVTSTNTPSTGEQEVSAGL

Chain of human C-C chemokine receptor 2B (human) (P41597 whole entry): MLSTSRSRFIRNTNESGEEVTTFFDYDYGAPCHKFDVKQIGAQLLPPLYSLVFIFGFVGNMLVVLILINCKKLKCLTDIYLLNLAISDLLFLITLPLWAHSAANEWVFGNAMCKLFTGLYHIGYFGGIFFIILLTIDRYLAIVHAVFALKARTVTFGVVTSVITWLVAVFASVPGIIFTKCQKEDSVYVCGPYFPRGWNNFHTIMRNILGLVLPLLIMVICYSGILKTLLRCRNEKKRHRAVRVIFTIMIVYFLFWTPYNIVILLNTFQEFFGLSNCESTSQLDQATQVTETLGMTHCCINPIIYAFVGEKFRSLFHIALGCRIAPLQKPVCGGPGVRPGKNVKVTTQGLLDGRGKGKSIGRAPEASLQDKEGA

Substance	EC50 of calcium mobilization (FLIPR), THP-1 cells [1] [nM]	EC50 of MCP-1-dependent calcium mobilization (FLIPR), CHO-K1 cells expressing the chimeric receptor [2] [nM]	EC50 of MCP-1 signaling (calcium mobilization, FLIPR) in THP-1 cells [1] [nM]	calcium mobilization (FLIPR), THP-1 cells [1] [nM]
canine monocyte chemoattractant protein-1 (from UniProt P52203 24-101) (ligand)	53	–	–	–
human monocyte chemoattractant protein-1 (from UniProt P13500 24-99) (ligand)	–	1.5	3	8
mouse monocyte chemoattractant protein-1 (from UniProt P10148 24-148) (ligand)	30	–	–	–
